Bridge positions count the residues as written; N and C are the ends. Ends that are not written are not given here. COCH2 = acetyl group that carries the bridge
T1: FGFR4 Protein, Human, Recombinant (His Tag) (Sino Biological, 10538-H08H) (human, UniProt P22455 22-369)
T1 construct: bought; not shown: His tag
T1 sequence (looked up): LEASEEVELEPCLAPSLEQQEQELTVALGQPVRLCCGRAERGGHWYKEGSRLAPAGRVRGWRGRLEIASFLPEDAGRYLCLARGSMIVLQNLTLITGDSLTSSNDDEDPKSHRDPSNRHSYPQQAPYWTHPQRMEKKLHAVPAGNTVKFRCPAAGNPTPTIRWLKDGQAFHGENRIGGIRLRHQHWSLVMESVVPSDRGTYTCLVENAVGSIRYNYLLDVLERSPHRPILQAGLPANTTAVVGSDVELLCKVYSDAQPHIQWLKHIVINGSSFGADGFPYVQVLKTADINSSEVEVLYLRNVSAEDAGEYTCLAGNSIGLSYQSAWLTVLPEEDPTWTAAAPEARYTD

T2: FGFR1 Protein, Human, Recombinant (His Tag) (Sino Biological, 10616-H08H) (human, UniProt P11362 22-376)
T2 construct: bought; not shown: His tag
T2 sequence (looked up): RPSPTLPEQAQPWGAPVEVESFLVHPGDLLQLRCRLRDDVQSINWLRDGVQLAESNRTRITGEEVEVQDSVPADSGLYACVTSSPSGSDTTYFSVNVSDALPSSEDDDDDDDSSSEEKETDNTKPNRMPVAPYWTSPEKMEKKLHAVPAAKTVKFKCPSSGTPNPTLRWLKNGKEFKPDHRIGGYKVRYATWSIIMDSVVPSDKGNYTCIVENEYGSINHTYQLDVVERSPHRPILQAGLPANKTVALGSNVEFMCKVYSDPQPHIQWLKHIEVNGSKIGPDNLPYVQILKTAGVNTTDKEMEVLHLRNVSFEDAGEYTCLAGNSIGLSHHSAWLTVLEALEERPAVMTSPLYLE

T3: FGFR3 Protein, Human, Recombinant (ECD, His Tag) (Sino Biological, 16044-H08H) (human, UniProt P22607 23-375)
T3 construct: extracellular domain; bought; not shown: His tag
T3 sequence (looked up): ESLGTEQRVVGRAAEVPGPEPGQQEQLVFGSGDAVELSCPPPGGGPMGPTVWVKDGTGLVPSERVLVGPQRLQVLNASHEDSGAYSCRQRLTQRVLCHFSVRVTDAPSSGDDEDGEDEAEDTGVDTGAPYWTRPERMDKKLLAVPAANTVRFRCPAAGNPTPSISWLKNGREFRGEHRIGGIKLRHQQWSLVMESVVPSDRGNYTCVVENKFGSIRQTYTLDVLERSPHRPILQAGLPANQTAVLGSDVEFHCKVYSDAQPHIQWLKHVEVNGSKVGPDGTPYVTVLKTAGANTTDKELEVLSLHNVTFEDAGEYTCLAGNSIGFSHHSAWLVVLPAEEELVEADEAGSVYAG


Columns and labels:
[1] = tested on: bovine myoblasts; assay: Bovine myoblast proliferation-promoting effect; type: cell-based, Japanese Black cattle; conditions: of 30 ng/mL bFGF (=100, negative control =0); 0.03 to 10 nmol/L complex, 4 days
Method: The bovine cells (myoblasts) proliferation-promoting effect of the cyclic peptide complex was evaluated.
Bovine myoblasts were separated from bovine muscle tissue by the following method. First, muscle tissue of Japanese Black cattle was finely chopped in HBSS (−) (phenol red-free) (FUJIFILM Wako Pure Chemical Corporation, 085-09355), and then pronase from Streptomyces griseus (Sigma-Aldrich, 10165921001) was added thereto to a final concentration of 1 mg/mL, and the mixture was allowed to stand at 37° C. for 1 hour. After allowing to stand, HBSS containing 10% FBS was added thereto, and the cells were acquired by centrifugation. The acquired cells were suspended in D-MEM (high glucose) (containing L-glutamine and phenol red) (FUJIFILM Wako Pure Chemical Corporation, 044-29765) containing 10% final concentration of bovine serum and 30 ng/mL bFGF. Suspended cells were cultured in a culture flask coated with an iMatrix-511 solution (FUJIFILM Wako Pure Chemical Corporation, 381-07363) at 0.55 μg/cm^2. […]
The evaluation of the proliferation-promoting effect on bovine myoblasts was performed by the following method. […] The number of viable cells was calculated from the imaging data and normalized by setting the number of viable cells in the well to which 30 ng/mL bFGF was added to 100, and setting the number of viable cells in the negative control well to 0.

[2] = target: T4, Recombinant Human FGFR2 alpha (IIIc) Fc Chimera Protein, CF (R&D systems, 712-FR-050) (human, UniProt P21802 22-377); assay: SPR, 10 nmol/L peptide over immobilized FGFR2-Fc
T4 construct: bought; not shown: Fc part of the chimera
Method: A CM5 sensor chip (Cytiva, 29149603) was set in Biacore-T200 (manufactured by Cytiva) which is a surface plasmon resonance device, and an HBS-EP buffer (Cytiva, BR100826) was added as a running buffer at a flow rate of 10 μL/min to equilibrate the flow channel. Next, 70 μL of a mixed aqueous solution of 0.2 mol/L 1-(3-dimethylaminopropyl)-3-ethylcarbodiimide (EDC) and 0.05 mol/L N-hydroxysuccinimide (NHS) was added to activate the sensor chip. Then, Recombinant Human FGFR2 alpha (IIIc) Fc Chimera Protein CF (R&D systems, 712-FR-050) prepared at 50 nmol/L in an Acetate 4.5 buffer (Cytiva, BR100350) was added thereto to perform immobilization at about 5000 RU. Thereafter, the blocking treatment was performed with an ethanolamine solution. In addition, in another flow channel of the same sensor chip, blocking treatment was performed immediately after activation without immobilizing FGFR.
A cyclic peptide diluted to 10 nmol/L using HBS-EP was added to each flow channel of the FGFR-immobilized sensor chip produced above at 25° C. for 10 minutes, then HBS-EP was allowed to flow as a running buffer for 30 minutes, and the binding of the cyclic peptide to FGFR was measured. Thereafter, a regeneration treatment of removing the bound cyclic peptide was performed by repeating the flow of a regeneration liquid in which sodium chloride powder was dissolved in Glysine 1.5 (Cytiva, BR100354) to a final concentration of 0.15 mol/L for 1 minute in each flow channel twice. The binding amount of the cyclic peptide was evaluated from the difference between the measured value of Biacore-T200 in the flow channel in which FGFR was immobilized and the measured value of Biacore-T200 in the flow channel in which FGFR was not immobilated, in a case where a 10 nmol/L cyclic peptide was allowed to flow.

[3] = target: T1, FGFR4 Protein, Human, Recombinant (His …); assay: SPR, 1 umol/L FGFR over immobilized peptide
Method: (§1) Next, 70 μL of a mixed aqueous solution of 0.2 mol/L 1-(3-dimethylaminopropyl)-3-ethylcarbodiimide (EDC) and 0.05 mol/L N-hydroxysuccinimide (NHS) was added to activate the sensor chip. Then, a cyclic peptide prepared to 2 mg/mL in HBS-EP buffer was added thereto to perform immobilization at about 200 RU. Thereafter, the blocking treatment was performed with an ethanolamine solution. In addition, in another flow channel of the same sensor chip, blocking treatment was performed immediately after activation without immobilizing FGFR.
(§2) After various FGFRs (FGFR1 Protein, Human, Recombinant (His Tag) (Sino Biological, 10616-H08H), FGFR2 Protein, Human, Recombinant (His Tag) (Sino Biological, 10824-H08H), FGFR3 Protein, Human, Recombinant (ECD, His Tag) (Sino Biological, 16044-H08H), FGFR4 Protein, Human, Recombinant (His Tag) (Sino Biological, 10538-H08H)) diluted with HBS-EP to 1 μmol/L at 25° C. was added to each flow channel of the cyclic peptide-immobilized sensor chip prepared above, for 10 minutes, HBS-EP was allowed to flow as a running buffer for 30 minutes, and the binding of various FGFRs to the cyclic peptide was measured. Thereafter, a regeneration treatment of removing the bound FGFR was performed by repeating the flow of a regeneration liquid in which sodium chloride (final concentration: 0.4 mol/L) and a sodium dodecyl sulfate aqueous solution (mixed concentration: 1%, final concentration: 0.2%) were dissolved in Glysine 1.5 (Cytiva, BR100354) for 1 minute in each flow channel twice. The binding amount of the cyclic peptide was evaluated from the difference between the measured value of Biacore-T200 in the flow channel in which the cyclic peptide was immobilized and the measured value of Biacore-T200 in the flow channel in which the cyclic peptide was not immobilized, in a case where 1 μmol/L FGFR was allowed to flow.
(§3) The binding amount of FGFR evaluated above was normalized to the binding amount of FGFR molecules per one molecule of the cyclic peptide using the molecular weights of the cyclic peptide and FGFR, and the binding affinity to FGFR was evaluated according to the following evaluation criteria. The evaluation result preferably satisfies the evaluation criteria A, B, or C.

[4] = target: T2, FGFR1 Protein, Human, Recombinant (His …); assay: SPR, 1 umol/L FGFR over immobilized peptide
Method: as §1, §2, §3

[5] = target: T3, FGFR3 Protein, Human, Recombinant (ECD, …); assay: SPR, 1 umol/L FGFR over immobilized peptide
Method: as §1, §2, §3

[6] = target: T5, FGFR2 Protein, Human, Recombinant (His Tag) (Sino Biological, 10824-H08H) (human, UniProt P21802 22-377); assay: SPR, 1 umol/L FGFR over immobilized peptide
T5 construct: bought; not shown: His tag
Method: as §1, §2, §3

T4 sequence (P21802 22-377, change not shown): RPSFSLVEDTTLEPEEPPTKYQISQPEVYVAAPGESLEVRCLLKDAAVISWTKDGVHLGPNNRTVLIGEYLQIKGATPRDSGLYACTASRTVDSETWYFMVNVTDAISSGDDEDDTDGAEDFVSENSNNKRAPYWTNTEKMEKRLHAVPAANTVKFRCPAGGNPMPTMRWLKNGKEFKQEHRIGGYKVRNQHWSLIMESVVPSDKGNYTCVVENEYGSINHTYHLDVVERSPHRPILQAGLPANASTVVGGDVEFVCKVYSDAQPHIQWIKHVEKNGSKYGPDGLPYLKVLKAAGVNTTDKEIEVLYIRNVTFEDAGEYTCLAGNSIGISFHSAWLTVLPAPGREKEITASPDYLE
T5 sequence (P21802 22-377 limits assumed): as the sequence (P21802 22-377, change not shown) above

binding amount (SPR, cyclic peptide molecules bound per FGFR molecule at 10 nmol/L peptide) [2] | binding amount (SPR, FGFR molecules bound per cyclic peptide molecule) [3] | binding amount (SPR, FGFR molecules bound per cyclic peptide molecule) [4] | binding amount (SPR, FGFR molecules bound per cyclic peptide molecule) [5] | binding amount (SPR, FGFR molecules bound per cyclic peptide molecule) [6] | Molecule | bovine myoblast proliferation action [1]
 |  |  |  |  | Q-(C)-PQNFINPVQWRYFQHY-(K(acetyl))-NK (QCPQNFINPVQWRYFQHYK(COCH2)NKQCPQNFINPVQWRYFQHYK(COCH2)NK; thioether 2-19, 23-40; not fully specified (N-terminus, bridges); also: Bis-NHS-PEG9 crosslink, dimer of two 21-mers) [SEQ ID NO: 458, cyclic peptide complex; N-terminal acetylation, crosslinking between side chain amino groups of K via Bis-NHS-PEG9] | about 40%
≥ 0.7 moleculesofthecyclicpeptide/onemoleculeoffgfr | 0.01 to 0.05 moleculesoffgfr/onemoleculeofthecyclicpeptide | 0.01 to 0.05 moleculesoffgfr/onemoleculeofthecyclicpeptide | 0.01 to 0.05 moleculesoffgfr/onemoleculeofthecyclicpeptide | ≥ 0.05 moleculesoffgfr/onemoleculeofthecyclicpeptide | YCEENYLDPEQYQYFIYFK(COCH2)YKKK (thioether 2-19, chemically synthesized) [cyclic peptide SEQ ID NO: 450] | 
